Test results from the supplement of paper PMC10724198.
± gives the standard deviation of the averaged measurements.
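Also: PSI is a weighted mean of sequencing reads over stability bins, variants kept only with over 10 reads, mCherry proximal and sfGFP distal, peptide attached via GGGS linker.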

What follows are sequences tested on Saccharomyces cerevisiae (assay: protein stability index of tFT-peptide fusion (C-terminal peptide) (PSI (0-1 scale)); higher = more stable (slower turnover)). Details: genetic background: wild type; temperature: 30 C.
With QAKNNKKQKGWQ the protein stability index was 0.646 ± 0.046. QARKGPISSCRP showed a protein stability index of 0.664 ± 0.067. QARSLVRSLCYP gave a protein stability index of 0.677 ± 0.0082. In the case of QAVVGSYRELGE, the protein stability index is reported as 0.709 ± 0.038. Work on QCIYVCKKTPTI yielded a protein stability index of 0.679 ± 0.067. QCNTFNKEKPER showed a protein stability index of 0.694 ± 0.021. For QCQVKGIFKKVF, the protein stability index was 0.687 ± 0.0076. QDDTASMVVMIR showed a protein stability index of 0.697 ± 0.034. QDLDTALLLHAF showed a protein stability index of 0.657 ± 0.018. For QDSDRSLTPKPL, the protein stability index was 0.688 ± 0.028. QEALLAPEYSVD showed a protein stability index of 0.7 ± 0.0096. QEMMRGVVGGNW gave a protein stability index of 0.715 ± 0.033. With QEVKLAPEHRLR the protein stability index was 0.675 ± 0.013. In the case of QFCYSNPVSRYG, the protein stability index is reported as 0.6899 ± 0.004. Work on QFIFSRGGLPVL yielded a protein stability index of 0.7351 ± 0.0015. QFIPIRSIIMRG was tested, and the protein stability index was 0.73 ± 0.038. QFLWCFRPCCCS gave a protein stability index of 0.584 ± 0.081. In the case of QFVLLFRSSGLR, the protein stability index is reported as 0.7104 ± 0.0017. QGERHCCILVST gave a protein stability index of 0.555 ± 0.025. Sequence QGGLCGVYGWSL has a protein stability index of 0.68 ± 0.042. Sequence QGGSHARDRRRL has a protein stability index of 0.678 ± 0.013. For QHFSSPQPVPYS, the protein stability index was 0.696 ± 0.013. For QIKARVRRDLTL, the protein stability index was 0.692 ± 0.096. In the case of QKKIKNKRQHRT, the protein stability index is reported as 0.795 ± 0.11. QKKKILNKQRTK showed a protein stability index of 0.681 ± 0.033. QKKKKNRKQKIK showed a protein stability index of 0.696 ± 0.017. Work on QKKKPEKKAKRA yielded a protein stability index of 0.721 ± 0.013. QKNMVKKVENTR was tested, and the protein stability index was 0.7637 ± 0.0067. Work on QKPHGDVSFQVM yielded a protein stability index of 0.662 ± 0.033. QKPKDYTEDKRD gave a protein stability index of 0.718 ± 0.11. QKRAREKAPTPD gave a protein stability index of 0.729 ± 0.012. In the case of QKTYHATQTRRR, the protein stability index is reported as 0.6839 ± 0.00099. For QLASISPSPNPS, the protein stability index was 0.692 ± 0.021. QLCRPRIFTNRG gave a protein stability index of 0.662 ± 0.034. Work on QLDRRKDSLLRH yielded a protein stability index of 0.746 ± 0.017. Work on QLPPRLSRRLPP yielded a protein stability index of 0.741 ± 0.17. In the case of QLRRPPPPLPLP, the protein stability index is reported as 0.714 ± 0.0072. For QLSSARTILRRP, the protein stability index was 0.597 ± 0.0085. Work on QNHKSYQTQDHN yielded a protein stability index of 0.616 ± 0.051. Sequence QNLEDDLSIAGS has a protein stability index of 0.703 ± 0.02. Sequence QNNRKEIKRNEI has a protein stability index of 0.6662 ± 0.0039. Sequence QNPRTDEAVRSP has a protein stability index of 0.619 ± 0.011. QPPAKSRETKYR showed a protein stability index of 0.741 ± 0.031. Work on QPPPPRLPPRPP yielded a protein stability index of 0.622 ± 0.0027. For QPRPSISGLSPT, the protein stability index was 0.642 ± 0.02. In the case of QQKKCNTIKKNE, the protein stability index is reported as 0.637 ± 0.0024. Sequence QQLWQTHEHQAR has a protein stability index of 0.674 ± 0.035. QQQSTKHSEERV was tested, and the protein stability index was 0.691 ± 0.014. For QRGDDFHDTSPA, the protein stability index was 0.708 ± 0.0082. QRGEGTSQGILT showed a protein stability index of 0.807 ± 0.13. In the case of QSAFLFGFMSFW, the protein stability index is reported as 0.62 ± 0.025. Work on QSFGSYYLTIAL yielded a protein stability index of 0.67 ± 0.036. For QSHNDIRDGPPR, the protein stability index was 0.679 ± 0.021. With QSIESKKIKQKE the protein stability index was 0.7109 ± 0.0048. QSNPAERASSRL was tested, and the protein stability index was 0.692 ± 0.022. With QSQMEKGTIVWT the protein stability index was 0.705 ± 0.011. With QSSWVGRGVRGG the protein stability index was 0.647 ± 0.014. For QTLKKRRNRSRG, the protein stability index was 0.684 ± 0.041. QTLQHLQTPSIS showed a protein stability index of 0.761 ± 0.092. For QTYEGSKGHLRD, the protein stability index was 0.6625 ± 0.0044. QTYQQSVKNRDD gave a protein stability index of 0.666 ± 0.061. In the case of QVDVLVCKLEVP, the protein stability index is reported as 0.672 ± 0.11. Work on QVFKHVKHIEFD yielded a protein stability index of 0.725 ± 0.062. QVHPKRPLNQSL gave a protein stability index of 0.735 ± 0.054. In the case of QVSLLVKKSKLR, the protein stability index is reported as 0.679 ± 0.049. QVYGEWASAGWG showed a protein stability index of 0.718 ± 0.04. Sequence QWLGRDLKSREL has a protein stability index of 0.691 ± 0.064. Work on RACKKGTKRIRI yielded a protein stability index of 0.613 ± 0.06. Sequence RAGHREIARQKG has a protein stability index of 0.6307 ± 0.0013. RAGPPPPPSITL was tested, and the protein stability index was 0.83 ± 0.085. RAGRVRAPGRWP was tested, and the protein stability index was 0.728 ± 0.017. For RAIRWFGGRLVG, the protein stability index was 0.7228 ± 0.0049. With RAKGTGRRLGVA the protein stability index was 0.676 ± 0.013. RALVIKREALQI showed a protein stability index of 0.59 ± 0.03. With RASGNHVNQVDC the protein stability index was 0.719 ± 0.036. RASGSFPSLVFS was tested, and the protein stability index was 0.734 ± 0.12. With RASWVRTLMSCQ the protein stability index was 0.58161 ± 0.00022. For RATERIVNIKGK, the protein stability index was 0.63277 ± 0.00036. In the case of RATLPPSAASLP, the protein stability index is reported as 0.677 ± 0.1. RATSCAAPLLAR gave a protein stability index of 0.6009 ± 0.0047. For RATTDGGRGGRR, the protein stability index was 0.696 ± 0.037.
